# Reference: publication PMC1891329
# Target: full-length MglA (residues 1–205) fused to Zif or to the ω subunit of E. coli RNAP (F. tularensis subspecies holarctica LVS)
# Experiment: two-hybrid
substance,measurement,value
full-length F. tularensis LVS SspA (residues 1–210) fused to the ω subunit of E. coli RNAP or to Zif (natural protein),fold activation of the lacZ reporter,22 fold
